In article PMC5343425:

Target: Purified LDLR ectodomain (UniProt P01130)
Experiment: SPR; BIAcore 3000; LDLR ectodomain immobilised on a CM5 chip by amine coupling (target 1000 RU); lipoprotein fractions injected at 5 nM apoB in HBS-N pH 7.4 (0.01 M HEPES, 0.15 M NaCl) with 0.5% BSA and 1 mM calcium chloride; 25 °C, 30 μl/min for 3 min; fitted with the two-state binding model (A + B ↔ AB ↔ AB*)

Purified LDLR ectodomain, sequence (P01130 22-788): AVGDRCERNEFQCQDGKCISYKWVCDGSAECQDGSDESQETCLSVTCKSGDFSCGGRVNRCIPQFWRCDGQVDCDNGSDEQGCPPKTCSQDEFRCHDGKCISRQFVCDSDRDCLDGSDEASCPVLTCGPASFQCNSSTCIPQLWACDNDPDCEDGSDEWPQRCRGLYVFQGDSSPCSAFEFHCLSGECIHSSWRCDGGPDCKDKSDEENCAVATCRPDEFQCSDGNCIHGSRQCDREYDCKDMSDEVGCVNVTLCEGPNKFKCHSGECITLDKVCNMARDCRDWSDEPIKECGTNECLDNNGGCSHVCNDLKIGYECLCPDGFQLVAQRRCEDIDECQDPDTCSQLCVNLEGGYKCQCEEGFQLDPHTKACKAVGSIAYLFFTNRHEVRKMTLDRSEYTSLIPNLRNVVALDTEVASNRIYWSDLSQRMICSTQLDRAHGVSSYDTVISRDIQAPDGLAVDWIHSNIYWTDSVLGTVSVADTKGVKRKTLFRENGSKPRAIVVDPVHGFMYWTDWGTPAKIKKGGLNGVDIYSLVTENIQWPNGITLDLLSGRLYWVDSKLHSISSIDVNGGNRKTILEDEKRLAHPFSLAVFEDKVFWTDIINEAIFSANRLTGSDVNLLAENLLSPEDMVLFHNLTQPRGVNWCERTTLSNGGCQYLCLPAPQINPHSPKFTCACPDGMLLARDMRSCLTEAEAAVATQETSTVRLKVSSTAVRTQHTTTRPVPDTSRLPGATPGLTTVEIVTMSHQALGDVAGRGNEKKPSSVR

| K1 (two-state, step 1) [M⁻¹] | K2 (two-state, step 2) | Ka [M⁻¹] | ka1 (two-state, step 1) [M⁻¹ s⁻¹] | ka2 (two-state, step 2) [s⁻¹] | kd1 (two-state, step 1) [s⁻¹] | kd2 (two-state, step 2) [s⁻¹] | Substance |
| --- | --- | --- | --- | --- | --- | --- | --- |
| 1.4e+08 | 1.7 | 5e+08 | 1.45e+06 | 0.006 | 0.0127 | 0.00287 | LDL (density 1.019-1.063 g/ml) isolated from fasting APOE3/E4 subjects (from UniProt P02649 19-317; P02649 19-317) (complex) |
| 1.9e+08 | 17.3 | 3.3e+09 | 930000 | 0.017 | 0.0052 | 0.00097 | VLDL1-rich TRL fraction (Sf 60-400) isolated from fasting plasma of APOE3/E4 subjects (from UniProt P02649 19-317; P02649 19-317) (complex) |
